Patent US20130195869A1 (SEKISUI CHEMICAL, published 2013)
Residue numbers refer to the chain shown, from its start.

T1: human CCR7 expressed on CHO-K1 cells (human CCR7 gene-introduced stable expression cell) (human, UniProt P32248 25-378)
T1 construct: also called hCCR7; hCCR7 gene-introduced cell
T1 sequence: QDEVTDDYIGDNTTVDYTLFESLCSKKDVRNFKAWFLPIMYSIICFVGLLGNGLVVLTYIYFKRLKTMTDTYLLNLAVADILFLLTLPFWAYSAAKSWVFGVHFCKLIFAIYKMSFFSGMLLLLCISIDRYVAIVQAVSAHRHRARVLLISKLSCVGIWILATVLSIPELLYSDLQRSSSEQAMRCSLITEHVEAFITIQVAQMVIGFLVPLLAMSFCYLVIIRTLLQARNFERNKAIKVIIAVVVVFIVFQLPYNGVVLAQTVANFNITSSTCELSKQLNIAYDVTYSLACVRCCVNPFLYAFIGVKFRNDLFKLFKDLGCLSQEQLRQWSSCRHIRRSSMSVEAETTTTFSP

T2: human native CCR7 on peripheral blood mononuclear cells of a healthy person (human, UniProt P32248 25-378)
T2 construct: whole, on cells; Endogenous receptor on primary cells of a donor; kept apart from the recombinant receptor on CHO-K1 cells; also called CCR7 on PBMC
T2 sequence (looked up): T1 sequence

B1: anti-human CCR7 monoclonal antibody R7-11 (hybridoma FERM BP-11373) (antibody, IgG1, V domains shown)
VH: EVQLQQSGPDLVMPGASVRISCKASGYSFTAYYMHWVKQSHGLSLEWIGRVNPNNGGTSYNRKFKDKAILTVDRSSSTAFMELRSLTSEDSAVYYCARSESDHFYAMDSWGQGNSVSVSS
VL: DIVMTQTPLSLPVSLGDQVFISCRSSQSLVHSNGNTYLCWFLQKPGQSPKLLIYRVSNRFSGVPDRFSGSGSGTDFTLKISRVEAEDLGVYFCFQGSHVPHTFGSGTK
notes: Mouse monoclonal antibody from hybridoma
B2: anti-human CCR7 monoclonal antibody R7-18 (hybridoma FERM BP-11374) (antibody, IgG1, V domains shown)
VH: EVQLQQSGPDLVKPGASVKISCKASGYSFTGYYMHWVKQSHGKSLEWIGRVNPNNGGTSYNKKFKVKAILTVDRSSSTAYMEFRSLTLEDSAVYYCARSESNNFYAMDYWGQGKSVTVSS
VL: B1 VL with V3L, F20S, F41Y
notes: as for B1
B3: anti-human CCR7 monoclonal antibody R7-47 (hybridoma FERM BP-11376) (antibody, IgG1, V domains shown)
VH: EVQLQQSGPDLVKPGTSVKISCKASGYKFTDFNMDWVRQRHGKSLEWIGDVNPQNGEIFYNQKFRGKATLTVVKSSSTTYLELRSLTSEDTAVYFCTRLEFDYTGSNGFAYWGQGTLVTVSA
VL: DILMTQTPLSLPVSLGDQASISCRSSQTLVHRNGNTYLEWYLQKPGQSPKLLIYKVSNRFSGVPDRFSGRGSGTDFTLKISRVEAEDQGIYYCFQGSHDPWTFGGGTK
notes: as for B1
B4: anti-human CCR7 monoclonal antibody R7-25 (hybridoma FERM BP-11375) (antibody, IgG1, V domains shown)
VH: EVMVVESGPGLMKPSQSLSLTCAVTGYSITSGYDWHWIRHFPGNILEWMGYINYSGSTNYKPSLKSRISITLDTSKNHFFLKLSSVTTEDTATYYCARGSYYSYEFAYWGQGTLVTVSA
VL: DIVMSQSPSSLAVSVGEKVTMSCKSSQRLLYYSTQKNYLAWYQQKPGQSPKLLIFWASTRESGVPNRFTGSGSGTDFTLTINSVKAEDLAVYYCQQYYTYPTFGGGTK
notes: as for B1
B5: anti-human CCR7 monoclonal antibody R7-01 (hybridoma FERM BP-11369) (antibody, IgG1, V domains shown)
VH: EVQLQQSGPELVKPGTSVKMSCKGSGYTFTDYYINWVRQSHGKSLEWIGRVNPGNGGTSYNQRFKGKATLTVDKFLSTAFMQLNSLTSEDSAVYFCARTGTYYNYDRGGFAYWGHGTLVTVSA
VL: DVLLTQSPVSLPVSLGDQASISCRCSQNIVHINGNTYLEWFLQKPGQSPKLLIYKVSNRFSGVPDRFSGSGSGTDFTLKIRRVEAEDLGVYYCFQGSHVPHTFGSGTK
notes: Mouse monoclonal antibody purified from hybridoma supernatant on protein G
B6: anti-human CCR7 monoclonal antibody R7-02 (hybridoma FERM BP-11404) (antibody, IgG2a, V domains shown)
VH: QVQLQQSGAELERPGASVKLSCTASGFNIRDDYVHWVKQRPEQGLEWIGRIDPANGNTKYGPKFQAKATLTADTSSNTAYLQLGSLTSEDTAVYYCTRSFYDYDLFVPWGQGTLVTVSA
VL: DAVVTQESALTTSPGETVTLTCRSSTGAVTKNNFANWVQEKPDHLFTGLIGGNNIRAPGVPARFSGSLIGDKAALSITGAQTEDEAIYFCALWYSNHWVFGGGTK
notes: as for B1
B7: anti-human CCR7 monoclonal antibody R7-05 (hybridoma FERM BP-11371) (antibody, IgG2b, V domains shown)
VH: EVQLQQSGAELVRPGASVKLSCTASGFNIKDDYIHWVKQRPEQGLDWIGRVDPADGNTKYAPNFHDKATVTADTSSNTAYLQLSSLTSEDTAVYYCARSFYDYDLFASWGQGTLVTVSA
VL: B6 VL with K31T, N32S, G51S, G52S, I55K
notes: as for B1
B8: anti-human CCR7 monoclonal antibody R7-09 (hybridoma FERM BP-11372) (antibody, IgG2a, V domains shown)
VH: B7 VH with A9T, E42D, D46E, V51I, D55N, N63K, H65Q, V70I, A72S, T116S
VL: B6 VL with E16G, T19I, K31T, N32S, T47S, G51S, I55K, I87M, S95N
notes: as for B1

Molecular target: T1, human CCR7 expressed on CHO-K1 cells …
Test: flow cytometry, 10 µg/mL antibody on hCCR7 gene-introduced CHO-K1 cells, PE anti-mouse IgG
Procedure: A 10 μg/mL solution of an anti-human CCR7 monoclonal antibody or mouse control IgG (Thermo, negative control) in PBS was prepared (hereinafter, referred to as “antibody solution”). After washing hCCR7 gene-introduced cells with PBS, the antibody solution was incubated together with the cells. Further, the cells were washed with PBS, and added with a phycoerythrin-labeled anti-mouse IgG antibody (Beckman Coulter) as a secondary antibody. Then interaction between the cells, and the anti-human CCR7 antibody or the mouse control IgG was analyzed by using a flow cytometer FACScalibur (Becton, Dickinson). FIG. 9 is a histogram showing an analytical result of interaction between hCCR7 gene-introduced cells, and mouse control IgG. FIG. 10 is a histogram showing an analytical result of interaction between a hCCR7 gene-introduced cell, and anti-human CCR7 antibody R7-47. […] In FIGS. 9 and 10, the vertical axis represents the number of cells, and the horizontal axis represents fluorescence intensity originating from phycoerythrin (PE). Of the two areas (M1, M2), the cell belonging to M2 (right area) indicates the cells that binds to the antibody. In Table 2, a percentage of specifically binding cells is represented by M2/(M1+M2).

Row | Percentage of specifically binding cells (M2/(M1 + M2)) | Molecule
1 | 100% | B1
2 | 100% | B2
3 | 99.9% | B3
4 | 100% | B4
5 | 99.8% | B5
6 | 100% | B6
7 | 100% | B7
8 | 100% | B8

Molecular target: human CCR7 expressed on CHO-K1 cells (human CCR7 gene-introduced stable expression cell) (human) (UniProt P32248)
Test: as above

Row | Percentage of specifically binding cells (M2/(M1 + M2)) | Molecule
9 | 0.7% | mouse control IgG (Thermo, negative control) (antibody)

Molecular target: T2, human native CCR7 on peripheral blood …
Test: flow cytometry, 0.5 µg antibody on 3×10^5 human PBMC, FITC anti-mouse IgG
Procedure: From peripheral blood of a healthy person, mononuclear cells (PBMC) were isolated using Lymphoprep (Axis-Shield) according to a routine method. The isolated PBMC were suspended in a phosphate buffered saline (PBS) solution containing 1 mg/mL human gamma-globulin (Jackson Immuno Research Laboratories), and blocked by incubation at room temperature for 30 minutes. The PBMC (3×10⁵ cells) after blocking were incubated together with each anti-human CCR7 antibody (0.5 μg) or isotype control antibody (0.5 μg) at 4° C. for one hour. Thereafter, PBMC were washed three times with a washing buffer (PBS solution containing 0.1% fetal bovine serum). Then, a fluorescein isothiocyanate (FITC)-labeled anti-mouse IgG antibody (Beckman Coulter) was added as secondary antibody, and incubated at 4° C. for 1 hour. PBMC were washed again three times with the washing buffer, and then analyzed by using a flow cytometer (Beckman Coulter).

Row | Percentage of specifically binding cells | Molecule
10 | 25.5% | B1
11 | 40.5% | B2
12 | 49.3% | B3
13 | 47% | B4
14 | 10.8% | B5
15 | 44.6% | B6
16 | 37.3% | B7
17 | 32.9% | B8

Molecular target: T1, human CCR7 expressed on CHO-K1 cells …
Test: cell-based or functional assay

Row | 50% inhibition concentration (IC50) of the intracellular Ca^2+ rise caused by 1×10^-7 M CCL21 | Molecule
18 | 16 nM | B1
19 | 11 nM | B2
20 | 7.4 nM | B3
21 | 22 nM | B4
22 | 340 nM | B5
23 | 46 nM | B6
24 | 94 nM | B7
25 | 32 nM | B8
